Patent publication US20210275685A1 (IMMUNOGEN, published 2021)

T1: His-tagged soluble human ADAM9 (human, UniProt Q13443 206-697)
T1 construct: also called shADAM9-His; huADAM9-His
T1 sequence: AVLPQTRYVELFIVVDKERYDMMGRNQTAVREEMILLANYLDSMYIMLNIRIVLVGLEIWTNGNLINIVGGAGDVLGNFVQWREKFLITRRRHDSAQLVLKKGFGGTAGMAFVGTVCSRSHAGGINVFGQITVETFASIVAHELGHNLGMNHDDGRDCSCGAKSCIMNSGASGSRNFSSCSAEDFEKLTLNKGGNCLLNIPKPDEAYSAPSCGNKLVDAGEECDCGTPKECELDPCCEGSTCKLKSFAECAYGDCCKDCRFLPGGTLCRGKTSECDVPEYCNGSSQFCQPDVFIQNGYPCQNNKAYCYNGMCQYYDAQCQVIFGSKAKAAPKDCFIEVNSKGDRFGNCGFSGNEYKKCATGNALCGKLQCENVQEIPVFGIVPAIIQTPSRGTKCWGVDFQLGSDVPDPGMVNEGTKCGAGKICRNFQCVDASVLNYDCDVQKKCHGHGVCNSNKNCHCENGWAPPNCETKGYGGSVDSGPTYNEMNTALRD


Experiments:
huFcRn = biological target: T2, huFcRn (Homo sapiens, UniProt P55899); assay: sensorgram (RU against time) at pH 6.0: FcRn immobilized, antibody injected at 25 nM and 100 nM; responses of about 60-70 RU and about 190 RU
T2 construct: construct not described; also called human neonatal Fc receptor
T2 sequence (P55899 24-297 limits assumed, form in doubt): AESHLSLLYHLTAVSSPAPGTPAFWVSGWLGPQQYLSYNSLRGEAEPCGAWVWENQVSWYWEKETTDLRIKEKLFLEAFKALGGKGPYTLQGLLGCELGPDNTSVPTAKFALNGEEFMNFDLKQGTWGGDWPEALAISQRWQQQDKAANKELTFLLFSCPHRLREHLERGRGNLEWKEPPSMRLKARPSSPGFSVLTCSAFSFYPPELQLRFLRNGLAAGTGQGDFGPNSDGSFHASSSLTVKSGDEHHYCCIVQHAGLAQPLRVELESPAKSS

[1] = biological target: T1, His-tagged soluble human ADAM9; assay: BIACORE, against antibodies without N54F (Table 3)
Excerpt: The relative binding affinity of the humanized/optimized antibodies hMAB-A (1.1), hMAB-A (2.2), hMAB-A (2.3), hMAB-A (3.3), hMAB-A (4.4) and the chimeric chMAB-A (having murine VH/VL Domains) to huADAM was investigated using BIACORE® analysis, in which His-tagged soluble human ADAM9 (“shADAM9-His,” containing an extracellular portion of human ADAM9 fused to a histidine-containing protein) was passed over a surface coated with immobilized antibody. Briefly, each antibody was captured on a Fab2 goat anti-human Fc surface and then incubated in the presence of different concentrations (6.25-100 nM) of the shADAM9-His protein. The kinetics of binding were determined via BIACORE® analysis binding (normalized 1:1 Langmuir binding model). Binding to cynoADAM9 was examined by FACS as described above and by ELISA.

| Kd (huFcRn) [nM] | fold increase in affinity [1] [fold] | Binder |
| --- | --- | --- |
|  | ~2 | hMAB-A (3.3) (antibody, V domains shown, human Fc; also called hMAB-A VH(3)/hMAB-A VL(3)) VH: EVQLVESGGGLVKPGGSLRLSCAASGFTFSSYWMHWVRQAPGKGLEWVGEIIPIFGHTNYNERFQGRFTISLDNSKNTLYLQMGSLRAEDTAVYYCARGGYYYYGSRDYFDYWGQGTTVTVSS VL: DIVMTQSPDSLAVSLGERATISCRASQSVDYSGDSYMNWYQQKPGQPPKLLIYAASDLESGIPARFSGSGSGTDFTLTISSLEPEDFATYYCQQSHEDPFTFGQGTKLEIK |
|  | ~2 | hMAB-A (2.3) (antibody, V domains shown, human Fc; also called hMAB-A VH(2)/hMAB-A VL(3)) VH: EVQLVESGGGLVKPGGSLRLSCAASGFTFSSYWMHWVRQAPGKGLEWVGEIIPIFGHTNYNEKFKSRFTISLDNSKNTLYLQMGSLRAEDTAVYYCARGGYYYYGSRDYFDYWGQGTTVTVSS VL: DIVMTQSPDSLAVSLGERATISCRASQSVDYSGDSYMNWYQQKPGQPPKLLIYAASDLESGIPARFSGSGSGTDFTLTISSLEPEDFATYYCQQSHEDPFTFGQGTKLEIK |

The remaining lines, values behind:

| Binder | Kd (huFcRn) [nM] | fold increase in affinity [1] [fold] |
| --- | --- | --- |
| hMAB-A (2I.2) (antibody, human IgG1, kappa, also called MAB-A VH(2I); MAB-A VH(2I.2)) heavy: not shown light: DIVMTQSPDSLAVSLGERATISCKASQSVDYSGDSYMNWYQQKPGQPPKLLIYAASDLESGIPARFSGSGSGTDFTLTISSLEPEDFATYYCQQSHEDPFTFGQGTKLEIKRTVAAPSVFIFPPSDEQLKSGTASVVCLLNNFYPREAKVQWKVDNALQSGNSQESVTEQDSKDSTYSLSSTLTLSKADYEKHKVYACEVTHQGLSSPVTKSFNRGEC | 161 |  |
| hMAB-A (2.2) (antibody, V domains shown, also called parental hMAB-A (2.2); hMAB-A VH(2)/hMAB-A VL(2)) VH: EVQLVESGGGLVKPGGSLRLSCAASGFTFSSYWMHWVRQAPGKGLEWVGEIIPIFGHTNYNEKFKSRFTISLDNSKNTLYLQMGSLRAEDTAVYYCARGGYYYYGSRDYFDYWGQGTTVTVSS VL: DIVMTQSPDSLAVSLGERATISCKASQSVDYSGDSYMNWYQQKPGQPPKLLIYAASDLESGIPARFSGSGSGTDFTLTISSLEPEDFATYYCQQSHEDPFTFGQGTKLEIK |  | ~2 |
